According to PMC8145704, “Conformational Plasticity of Hepatitis B Core Protein Spikes Promotes Peptide Binding Independent of the Secretion Phenotype” (Microorganisms, 2021):

How the values were obtained:
Experiment in all cases: negative-staining electron microscopy
[1] = target: F97L-HBc capsids (Hepatitis B virus (genotype D; strain ayw)) (UniProt P03146)
[2] = target: P5T-HBc capsids (Hepatitis B virus (genotype D; strain ayw)) (UniProt P03146)
[3] = target: L60V-HBc capsids (Hepatitis B virus (genotype D; strain ayw)) (UniProt P03146)

F97L-HBc capsids (from UniProt P03146 1-183) (natural protein)
stoichiometry N (subunits per capsid) [1]: 240

P5T-HBc capsids (from UniProt P03146 1-183) (natural protein)
stoichiometry N (subunits per capsid) [2]: 240

L60V-HBc capsids (from UniProt P03146 1-183) (natural protein)
stoichiometry N (subunits per capsid) [3]: 240
